We go through 15 sequences from the DeepSol protein solubility set.

A short description of the data set: soluble on expression in E. coli; label from the status in PepcDB or PDB records.
With “MSSSSFTTERPFTPELLSPAGTLKNMRYAFAYGADAVYAGQPRYSLRVRNNEFNHENLALGIQEAHALGKRFYVVVNIAPHNSKLKTFLRDLKPVIEMGPDALIMSDPGLIMMVRDAFPQMDIHLSVQANAVNWATVKFWQQMGLTRVILSRELSLEEIAEIRAQVPEMELEVFVHGALCMAYSGRCLLSGYINKRDPNQGTCTNACRWEYNVQEGKEDDVGNIVHIHQPIAVKNVEPTLGIGAPTDKVFVIEEAQRPGEYMTASEDEHGTYIMNSKDLRAIQHVERLTQLGVHSLKIEGRTKSFYYCARTAQVYRRAIDDAVAGKPFDPSLLTTLEGLAHRGYTEGFLRRHVHEEQQTYEYGYSVSERQQFVGEFTGVRREGLAEVLVKNKFSRGDSVELMTPKGNIQFTLESMQDKKGQPADIAPGNGHIMYLPIPEEIDVEYGLLIRNLNGTNSRNPHEKA”, the “soluble on expression in E. coli” value was “not soluble”.
In the case of “MSSTLREASKDTLQAKDKTYHYYSLPLAAKSLGDIARLPKSLKVLLENLLRWQDGESVTDEDIQALAGWLKNAHADREIAWRPARVLMQDFTGVPAVVDLAAMREAVKRLGGDTSKVNPLSPVDLVIDHSVTVDHFGDDDAFEENVRLEMERNHERYMFLKWGKQAFSRFSVVPPGTGICHQVNLEYLGKAVWSELQDGEWIAYPDSLVGTDSHTTMINGLGVLGWGVGGIEAEAAMLGQPVSMLIPDVVGFKLTGKLREGITATDLVLTVTQMLRKHGVVGKFVEFYGDGLDSLPLADRATIANMSPEYGATCGFFPIDAITLEYMRLSGRSDDLVELVETYAKAQGMWRNPGDEPVFTSTLELDMGDVEASLAGPKRPQDRVALGDVPKAFAASAELELNTAQRDRQPVDYTMNGQPYQLPDGAVVIAAITSCTNTSNPSVLMAAGLLAKKAVTLGLKRQPWVKASLAPGSKVVSDYLAQAKLTPYLDELGFNLVGYGCTTCIGNSGPLPEPIETAIKKGDLTVGAVLSGNRNFEGRIHPLVKTNWLASPPLVVAYALAGNMNINLATDPLGYDRKGDPVYLKDIWPSAQEIARAVELVSSDMFRKEYAEVFEGTEEWKSIQVESSDTYGWQSDSTYIRLSPFFDEMQAQPAPVKDIHGARILAMLGDSVTTDHISPAGSIKPDSPAGRYLQNHGVERKDFNSYGSRRGNHEVMMRGTFANIRIRNEMLPGVEGGMTRHLPGTEAMSIYDAAMLYQQEKTPLAVIAGKEYGSGSSRDWAAKGPRLLGIRVVIAESFERIHRSNLIGMGILPLEFPQGVTRKTLGLTGEEVIDIADLQNLRPGATIPVTLTRSDGSKETVPCRCRIDTATELTYYQNDGILHYVIRNMLN” it was “not soluble”; in that of “MSSTLRFHVLGRGAALPRAVAPYFVLRTDNWDDFGHRVQFHLILIVSGAPEKRIGSLKVLQRTSDKGEAMMVATDTELPSKFVELDDTFVSLGQDDDFYKKLHEALGDRAGEVLDALRDIAWRPAFASDFEPTPAFRNAMMRENGAQRARRFGRAWALGEQITERPAFDYVGTIEGADIKVEGEFDFSATDPVPGRIVGLIGRNAVGKTRYLASLGSDLAQISRRSAEALEAREARFPGGRPLFTRIIAISYSAFDRFKRPPMDSSSSYVYCGIRNDRGGLSRSALIDRYRLNQVRIRERGEQRSWMRHMKTILGDQGAQLTASLEEEIRSDSTDDSALSSLSSGQSILAHFVTALLAWIQPNSLVLFDEPETHLHPNAVASLFLVLSQVLQEFDSYAVIATHSPVVIQEIPAKRVLVFRREGNVTIAEPLLLESFGESVTELTRHVFETGEVESLYKRTLRELAAEDTVEDVLARFELGLSLSAQAYLLAQYSKKAGGRTLEHHHHHH”, “not soluble”.
On to “MSTCATVSRDLDEPLAGTAATARTWLLLEQPGPWGTKALTSSHLDQALGRALEAAAEGTGVRIALIRRPGRHADCGTPAVRQVYAAHTVPGNVWLHGAMTSDPEQLLDLDFTALGMGDPHTFDRLLGGRPHTGDPLALVCTNGKRDRCCALLGRPLAAELAASGVTGAWEVTHLGGHRFAPTLLILPFGYAYGRAEAPHIKEVLQGVREGRVVVEGCRGRSAWERPGQAAELAVRTAAHEYAADALTVVATDGTAPRWEVTVAHADGRLWRVIVAQGASLPPRPESCGSALGSPARMDVVAVRELIPTEIDATSR”, for which the “soluble on expression in E. coli” value is “not soluble”.
In the case of “MSTDEWRTERDPLVSQDRFLWEKVCCTIIPLHKKRYSSFAKEVVNVSKDAVKINNKKQYITQILPLSQANQQKLTEVKREKKAIAQTHKIHFFDRVVHRKIAKGHYSIEARLDLHGCMQEEAYFFLKKFLQSSQQNGLRYVLVITGKGRSPGSNGVLYQSVPHWLSTPAFRYYVHAFEQAARQHGGDGALYVRLRRFLPGKGYDVV” it was “not soluble”; in that of “MSTEPLVVGAVAYTPNVVPIWEGIRGYFQDSESPDTQMDFVLYSNYARLVDSLIAGHIDIAWNTNLAYVRTVLQTGGRCTPLAQRDTDVDYTTVFVAHAGSDLHGAKDIAGKRLALGSADSAHAAILPLYYLRRAGIAESDLQVIRFDTDIGKHGDTGRSELDAVDAVLAGEADVAAIGSSTWAAMGAAELMGESLTEVWRTDGYCHCMFTALDTLPAERYQPWLDRLLAMSWDDSEHRKILELEGLRRWVPPHLDGYKPLFEAVQEQGIDPRW”, “not soluble”; in that of “MSTHNTHINETMQRNGRNNMAEHRGGSGNFAEDREKASDAGRKGGQHSGGNFKNDPQRASEAGKKGGQQSGGNKSGKS”, “not soluble”.
For “MSTIIDVYAREVLDSRGNPTVEVEVYTESGAFGRAIVPSGASTGEHEAVELRDGDKSRYLGKGVMNAVNNVNEAIAPEIVGFDVTDQAGIDRAMIELDGTPNKGKLGANAILGVSMAVAHAAADFVGLPLYRYLGGFNAKQLPTPMMNIINGGSHADNNVDFQEFMILPVGAPTFKESIRMGAEVFHALKAVLHDKGLNTAVGDEGGFAPNLGSNREALEVIIEAIEKAGYKAGENVFLGMDVASSEFYNKETGKYDLAGEGRTGLTSAEMVDFYEELCKDFPIISIEDGLDENDWDGHKLLTERIGDKVQLVGDDLFVTNTQKLAEGIEKGISNSILIKVNQIGTLTETFEAIEMAKRAGYTAVVSHRSGETEDATIADIAVATNAGQIKTGSMSRTDRIAKYNQLLRIEDELGEIAVYDGIKSFYNIKR”, the “soluble on expression in E. coli” value is “soluble”.
As to “MSTLQRRRVNRADSGDTSSIHSSANNTKGDKIANIAVDGDDDNGTNKKIAYDPEESKLRDNINIPTLTLMEEVLLMGLRDREGYLSFWNDSISYALRGCIIIELALRGKIRILDDSARKRFDLSERLIEVIDSSKTGEVLLDETLQLMKNDEPLSISNWIDLLSGETWNLLKINYQLKQVRERLAKGLVDKGVLRTEMKNFFLFDMATHPIADASCKEAIKRRVLSVLVSRNMELSYNEYFPETTSFKIIRTLALICGSYGANVLENVLTTLEYEKRDKAISRAEEIMAQFSQYPFDLEKETELGVSVNLNKEVKEEIENNPGHDLQLEVIAGVFEVFSRMDMLL”, the “soluble on expression in E. coli” value is on record as “soluble”.
Turning to “MSTMSTPAAEQRKLVEQLMGRDFSFRHNRYSHQKRDLGLHDPKICKSYLVGECPYDLFQGTKQSLGKCPQMHLTKHKIQYEREVKQGKTFPEFEREYLAILSRFVNECNGQISVALQNLKHTAEERMKIQQVTEELDVLDVRIGLMGQEIDSLIRADEVSMGMLQSVKLQELISKRKEVAKRVRNITENVGQSAQQKLQVCEVCGAYLSRLDTDRRLADHFLGKIHLGYVKMREDYDRLMKNNRTTNASKTATTLPGRRFV”, the “soluble on expression in E. coli” value was “not soluble”.
For the sequence “MSTPDGDEKEQCFHRAIAKTSIYLDREPGNPELTVWLAINKASLAGAQGGFGALSLAKEAKSLLEGVIATSPQTLDGSAYTSLGSLYYKVPGWPIGFGDDDKAEEMLKKALEINPKGIDPNYFYGDFLAEEGRDKEAKVYLTRAMQASPRPLEHHHHHH”, the “soluble on expression in E. coli” value was “not soluble”.
Take “MSTRPTTDKVKEAIFNMIGPYFSGGNGLDLFAGSGGLGIEALSRGIERVIFVDHDRKAVQTVRKNVAACGLEKRAEIYCNDAERALKAVAKRGLRFAVIFLDPPYKEKQWPTLLSSIVERQLLEPHGVVVAEHSAEAELPEEVGGLTRWKRETYGITGVTIYRWEGDGSDGEHCGLPREL”: the “soluble on expression in E. coli” value was “not soluble”.
In the case of “MSTRYPTLTRSGFVLPERMKASYEGAADGRRSATWDAPDTGVNSLIMPALRNLRSRSRAAVRNDPYAANAIDRRVSNLIGTGITPQPRIADKELRRIFQETWEDWVDESDADQLTDFYGQQALIARTVEQSGECFVRLRPRRMDDGLAVPLQLQCLAPEFVPHDKFEVTSTGNIIRAGIEFNGFGKRVAYWCYRSHPSDMTSINAGYNMLVRIPASQMLHIFEPVEPGQLRGVPRLAPVLKRLRSLDNFDDAVLFRQEVANLFAGFIRKPSADGPPMLDPLTGAPIKIGGDGFTPMVALEPGTMQELLPGEEVEFSTPPDGGNNYPDFMRQQLMAAAAGAGLPYELMTGDMRGVNDRTIRVVLNEFRRRLEQLQFSVYVHQLCRPVRAAWMDMAVLSGALQLDDYAARRREYLRTRWVPQGWSYIHPVQDVQSRTMEINAGLASRSEMCLRTGTDAEIVDEENAADAARARGLGLNYSTLSAFDEDPDEKENP” it was “not soluble”; in that of “MSTSSLRRQMKNIVHNYSEAEIKVREATSNDPWGPSSSLMSEIADLTYNVVAFSEIMSMIWKRLNDHGKNWRHVYKAMTLMEYLIKTGSERVSQQCKENMYAVQTLKDFQYVDRDGKDQGVNVREKAKQLVALLRDEDRLREERAHALKTKEKLAQTATASSAAVGSGPPPEAEQAWPQSSGEEELQLQLALAMSKEEADQEERIRRGDDLRLQMAIEESKRETGGKEESSLMDLADVFTAPAPAPTTDPWGGPAPMAAAVPTAAPTSDPWGGPPVPPAADPWGGPAPTPASGDPWRPAAPAGPSVDPWGGTPAPAAGEGPTPDPWGSSDGGVPVSGPSASDPWTPAPAFSDPWGGSPAKPSTNGTTAGGFDTEPDEFSDFDRLRTALPTSGSSAGELELLAGEVPARSPGAFDMSGVRGSLAEAVGSPPPAATPTPTPPTRKTPESFLGPNAALVDLDSLVSRPGPTPPGAKASNPFLPGGGPATGPSVTNPFQPAPPATLTLNQLRLSPVPPVPGAPPTYISPLGGGPGLPPMMPPGPPAPNTNPFLL”, “soluble”.
Consider “MSTVSGLKRPQSSEKNHRDRVFVRATRGKVQKVVREQYLRNDIPCQSRACPLCRSKLPKDSRGNVLEPILSEKPMFLEKFGHHYLIPDSNIFYHCIDALEHPNNFFDVIILQTVFSEISSKSIPLYNRMKRLCQEKTKRFTPFSNEFFVDTFVERLDDESANDRNDRAIRNAASWFASHLASLGIKIVLLTDDRENARLAAEQGIQVSTLKDYVQYLPDSEILLDMVSAIADAIASKEQVESGTKNVYELHWSMSRLLACIKNGEVHKGLINISTYNYLEGSVVVPGYNKPVLVSGRENLNRAVQGDIVCIQILPQDQWKTEAEEIADDDEDVVVSTAAEPDSARINDLELITKRNAHPTAKVVGILKRNWRPYVGHVDNATIAQSKGGSQQTVLLTPMDRRVPKIRFRTRQAPRLVGRRIVVAIDLWDASSRYPEGHFVRDLGEMETKEAETEALLLEYDVQHRPFPKAVLDCLPEEGHNWKVPADKTHPLWKNRKDFRDKLICSIDPPGCQDIDDALHACVLPNGNYEVGVHIADVTHFVKPNTSMDSEAASRGTTVYLVDKRIDMLPMLLGTDLCSLRPYVERFAFSCIWEMDENANIIKVHFTKSVIASKEAFSYADAQARIDDQKMQDPLTQGMRVLLKLSKILKQKRMDEGALNLASPEVRIQTDNETSDPMDVEIKQLLETNSLVEEFMLLANISVAQKIYDAFPQTAVLRRHAAPPLTNFDSLQDILRVCKGMHLKCDTSKSLAKSLDECVDPKEPYFNTLLRILTTRCMLSAEYFCSGTFAPPDFRHYGLASPIYTHFTSPIRRYADVLAHRQLAAAIDYETINPSLSDKSRLIEICNGINYRHRMAQMAGRASIEYYVGQALKGGVAEEDAYVIKVFKNGFVVFIARFGLEGIVYTKSLSSVLEPNVEYVEDEYKLNIEIRDQPKPQTVQIQMFQQVRVRVTTVRDEHSGKQKVQITLVY”, for which the “soluble on expression in E. coli” value was “soluble”.
